Data from patent publication US20230357415A1.

Molecular target: IL-5Rα expressed on cells (TF-1/IL-5Rα cells; human eosinophils) (human) (UniProt Q01344)
Test: cell-based or functional assay

IL-5Rα expressed on cells (TF-1/IL-5Rα cells; human eosinophils) (human), sequence (Q01344 21-420): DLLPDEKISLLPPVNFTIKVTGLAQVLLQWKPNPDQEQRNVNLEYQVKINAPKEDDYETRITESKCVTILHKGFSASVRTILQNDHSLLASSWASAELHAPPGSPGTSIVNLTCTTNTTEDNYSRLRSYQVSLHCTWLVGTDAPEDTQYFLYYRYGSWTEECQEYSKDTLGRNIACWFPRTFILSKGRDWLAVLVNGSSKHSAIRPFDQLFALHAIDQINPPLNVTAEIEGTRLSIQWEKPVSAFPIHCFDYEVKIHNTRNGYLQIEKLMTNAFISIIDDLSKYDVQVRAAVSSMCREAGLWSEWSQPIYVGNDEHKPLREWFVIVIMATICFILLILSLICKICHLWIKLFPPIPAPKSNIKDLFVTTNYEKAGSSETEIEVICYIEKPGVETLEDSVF

With benralizumab analogue (antibody) the absolute IC50 (Abs IC50), inhibition of IL-5-dependent proliferation of TF-1/IL-5Rα cells was 1.99 nM.
